Where no end group is shown, it is not given here. The star is where a group is joined. Thia = thiazolidide, C1CN(*)CS1
Legend:
[1] = molecular target: T1, recombinant human DP IV, mutation W629A (human, UniProt P27487 37-766); assay: photometric assay, competition with the standard substrate GP-4NA
T1 construct: range 37-766; Same Pichia construct as the wild type, single mutation by site-directed mutagenesis; also called mu 16 DP IV; mu 16
Method: (§1) In order to measure the inhibition constant Kᵢ a photometric assay was used The peptides were measured as competitors of the standard substrate GP-4-Nitroanilide. Three different substrate concentrations (0.4 mM to 0.05 mM) were combined with 8 different competitor concentrations (0.5 mM to 2 μM). […] Experiments were carried out under standard conditions: 30° C. in pH 7.6 40 mM HEPES (Sigma-Aldrich) buffer. Nitroaniline production was monitored using a HTS 7000+ microplate reader (PerkinElmer, Überlingen, Germany).

[2] = molecular target: T2, recombinant human DP IV, mutation R560A (human, UniProt P27487 37-766); assay: as above
T2 construct: range 37-766; Same Pichia construct as the wild type, single mutation by site-directed mutagenesis; also called mu 15 DP IV; mu 15
T2 sequence (P27487 other isoform, or with tags, fused parts or gaps R560A R560A limits assumed): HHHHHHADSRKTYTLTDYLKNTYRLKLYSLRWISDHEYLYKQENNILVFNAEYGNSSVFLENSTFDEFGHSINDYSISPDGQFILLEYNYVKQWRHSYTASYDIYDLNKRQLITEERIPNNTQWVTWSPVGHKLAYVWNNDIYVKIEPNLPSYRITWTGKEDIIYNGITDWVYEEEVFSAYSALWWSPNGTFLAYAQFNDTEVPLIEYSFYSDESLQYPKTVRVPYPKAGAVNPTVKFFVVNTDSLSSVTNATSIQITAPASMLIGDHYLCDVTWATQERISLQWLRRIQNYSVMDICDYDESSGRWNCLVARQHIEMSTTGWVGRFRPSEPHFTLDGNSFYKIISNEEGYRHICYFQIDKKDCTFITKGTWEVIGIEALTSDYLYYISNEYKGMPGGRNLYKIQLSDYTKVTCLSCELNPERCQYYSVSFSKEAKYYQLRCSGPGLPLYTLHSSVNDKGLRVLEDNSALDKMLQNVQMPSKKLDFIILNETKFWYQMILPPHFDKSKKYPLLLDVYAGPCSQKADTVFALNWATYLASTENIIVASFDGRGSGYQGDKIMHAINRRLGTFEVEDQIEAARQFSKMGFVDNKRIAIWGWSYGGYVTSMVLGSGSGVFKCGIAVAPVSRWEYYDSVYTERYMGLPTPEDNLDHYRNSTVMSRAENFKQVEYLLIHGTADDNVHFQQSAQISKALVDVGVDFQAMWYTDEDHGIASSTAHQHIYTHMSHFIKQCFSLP
Method: as §1

[3] = molecular target: T3, porcine kidney DP IV, wild type (porcine, UniProt P22411 38-766, natively glycosylated (Asn279 among others, as seen in the crystal)); assay: MALDI-TOF MS, inhibition of DP IV-catalyzed truncation of the substrate GIP after preincubation with TFTSDY
T3 construct: In the crystal a 2-2-2 symmetric tetramer (dimer of dimers); also called p wt DP IV; p wt
T3 sequence (P22411 38-766): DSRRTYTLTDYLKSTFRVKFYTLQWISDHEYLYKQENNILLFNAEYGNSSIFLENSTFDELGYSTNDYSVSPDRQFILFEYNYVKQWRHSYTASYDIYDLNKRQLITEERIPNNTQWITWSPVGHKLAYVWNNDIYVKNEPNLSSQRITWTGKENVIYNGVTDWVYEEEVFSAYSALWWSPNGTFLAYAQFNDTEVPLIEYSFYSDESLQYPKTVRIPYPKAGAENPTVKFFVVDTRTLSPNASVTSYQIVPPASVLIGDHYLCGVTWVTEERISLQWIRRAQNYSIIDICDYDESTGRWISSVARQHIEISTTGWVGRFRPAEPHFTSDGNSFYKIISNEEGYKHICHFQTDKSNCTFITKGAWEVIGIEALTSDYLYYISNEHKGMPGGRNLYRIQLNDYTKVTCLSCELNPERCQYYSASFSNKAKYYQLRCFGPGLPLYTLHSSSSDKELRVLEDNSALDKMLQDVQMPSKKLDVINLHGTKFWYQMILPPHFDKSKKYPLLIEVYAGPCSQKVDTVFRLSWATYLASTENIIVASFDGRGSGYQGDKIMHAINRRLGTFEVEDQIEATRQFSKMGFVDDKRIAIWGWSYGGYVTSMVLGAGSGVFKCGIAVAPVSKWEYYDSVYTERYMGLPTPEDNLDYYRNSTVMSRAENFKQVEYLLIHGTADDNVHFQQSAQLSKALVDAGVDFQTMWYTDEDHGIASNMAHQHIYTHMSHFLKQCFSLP

[4] = molecular target: DP IV; assay: photometric assay, competition with the standard substrate GP-4-nitroanilide; source of DP IV not stated
Chain of DP IV (chain, as listed by the source): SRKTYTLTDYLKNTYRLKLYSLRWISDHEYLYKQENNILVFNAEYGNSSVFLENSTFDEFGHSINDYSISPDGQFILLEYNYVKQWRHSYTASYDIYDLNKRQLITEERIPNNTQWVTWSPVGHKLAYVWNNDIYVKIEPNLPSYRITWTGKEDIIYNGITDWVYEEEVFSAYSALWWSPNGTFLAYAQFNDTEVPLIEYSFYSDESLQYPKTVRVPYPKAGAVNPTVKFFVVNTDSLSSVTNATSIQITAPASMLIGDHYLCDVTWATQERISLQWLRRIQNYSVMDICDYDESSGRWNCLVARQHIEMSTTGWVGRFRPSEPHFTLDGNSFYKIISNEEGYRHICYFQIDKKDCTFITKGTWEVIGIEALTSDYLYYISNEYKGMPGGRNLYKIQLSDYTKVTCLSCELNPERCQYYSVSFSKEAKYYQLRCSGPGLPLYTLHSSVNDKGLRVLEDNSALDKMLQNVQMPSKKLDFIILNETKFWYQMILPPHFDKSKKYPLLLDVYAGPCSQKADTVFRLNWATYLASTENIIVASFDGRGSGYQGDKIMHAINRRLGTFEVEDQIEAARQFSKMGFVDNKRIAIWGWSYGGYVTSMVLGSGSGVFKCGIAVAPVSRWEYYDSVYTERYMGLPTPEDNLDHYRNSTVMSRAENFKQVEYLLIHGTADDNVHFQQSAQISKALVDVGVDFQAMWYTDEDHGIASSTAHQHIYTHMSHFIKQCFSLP

[5] = molecular target: T3, porcine kidney DP IV, wild type; assay: MALDI-TOF MS, inhibition of DP IV-catalyzed truncation of the substrate glucagon after preincubation with TFTSDY
[6] = molecular target: T3, porcine kidney DP IV, wild type; assay: MALDI-TOF MS, inhibition of DP IV-catalyzed truncation of the substrate RANTES1-15 after preincubation with TFTSDY
[7] = molecular target: T3, porcine kidney DP IV, wild type; assay: MALDI-TOF MS, inhibition of DP IV-catalyzed truncation of the substrate GLP-1 after preincubation with TFTSDY
[8] = molecular target: T3, porcine kidney DP IV, wild type; assay: MALDI-TOF MS, inhibition of DP IV-catalyzed truncation of the substrate NPY after preincubation with TFTSDY
[9] = molecular target: T3, porcine kidney DP IV, wild type; assay: photometric assay, competition with the standard substrate GP-4NA
Method: as §1

T1 sequence (P27487 other isoform, or with tags, fused parts or gaps W629A W629A limits assumed): as the sequence (P27487 other isoform, or with tags, fused parts or gaps R560A R560A limits assumed) above, with A530R, W599A counted along it

YAESTF-NH2 [YAESTF amide]
Ki [1]: 1.06 µM
Ki [2]: 1.14 µM

RRLSYSRRRFE-Thia (also: linkage of decapeptide to Glu not explained) [Transp 01 (RRLSYSRRRF-E-Thia)]
Ki [1]: 0.0855 µM
Ki [2]: 0.0769 µM

B1: hexapeptide TFTSDY (peptide)
peptide: TFTSDY
notes: also called glucagon5-10; T(5)-F-T-S-D-Y
Ki [3]: 65.9 µM
Ki [4]: 710 µM
Ki [5]: 6.8 µM
Ki [6]: 12300 µM
Ki [7]: 13.7 µM
Ki [8]: 17.2 µM

HSDGIFTDSYSRYRKQMAVKKYLAAVL (peptide, UniProt P18509 132-158, looked up, ends and bridges not checked, range 132-158; also called PACAP(1-27)) [PACAP-27]
Ki [9]: 54.3 µM

From US20060234940A1 (OSI PHARMACEUTICALS, published 2006)
